{"source": "paper PMC11736430", "about": "“Embedding a ribonuclease in the spore crust couples gene expression to spore development in Bacillus subtilis” (Nucleic Acids Research, 2025)", "target": "the molecule itself", "assay": "SEC; KapD alone on the gel-filtration column; fractions 8-16 blotted with anti-KapD; size against a molecular weight marker", "data": [{"protein": "KapD-6xHis (enzyme, B. subtilis, UniProt O05231 1-205, looked up, KapD, 3'-exoribonuclease of the DEDDh family, Bacillus subtilis; kapD gene amplified with oligos CC073/074 and cloned in pET28a (EcoRI/SalI); also called KapD-His; His-tagged KapD; source: E. coli BL21 CodonPlus RIL (strain CCE095); in lysate (cells lysed together with the CotY strain), and purified (His-Trap, gel filtration) for KapD alone; not shown: His6, C-terminal, kept) MTTNSLLIIDFEFTMPDGKYSPQNFFPEIIEAGIVKSIDDEVVETFSSYVRPKKFPKLTKRCKSFLKITQKQVDEGMRFEDFIRKLNELDPEKNSTIITWGNMDMKVLKQNCMFNHIPFPFKGEMRDLSLEYKNFFGDRTLTGLWKAAEEYGDSGTGTHHKALDDALTAYKLFKLVEQDKQYLEKPKPPTIGERIDLTELLKRAT", "values": [{"measurement": "stoichiometry N", "result": 2}]}]}
